Reference: publication PMC6637015
Each block holds one substance with its values, some of them ahead of it.

Key:
[1] = biological target: c-Abl (UniProt P00520); experiment: streptavidin precipitation of ligated FcRL1, c-Abl blot; conditions: reference: wild type; sites Y281
[2] = biological target: c-Abl SH2 domain, 127-217 (UniProt P00520); experiment: GST-SH2 pull-down from cell lysate; conditions: reference: wild type; sites Y281
[3] = biological target: c-Abl (UniProt P00520); experiment: GSH-bead precipitation of co-expressed c-Abl–mCherry-GST; conditions: reference: wild type, sites Y281

binding against the reference [1]: lost
binding against the reference [2]: lost
Substance: FcRL1 (Fc receptor-like 1) (from UniProt Q8R4Y0) Y281F

binding against the reference ([3]; BCR ligation): lost
Substance: FcRL1 (Fc receptor-like 1) (from UniProt Q8R4Y0) Y281F, BCR ligation

binding against the reference ([3]; FcRL1 ligation): lost
Substance: FcRL1 (Fc receptor-like 1) (from UniProt Q8R4Y0) Y281F, FcRL1 ligation
